Source: IntAct's records for PubMed 21670263

Tests used:
tf2h1_human GTF2H1 = tf2h1_human GTF2H1 (UniProt P32780)
cbp_human CREBBP = cbp_human CREBBP (UniProt Q92793)
Chain of cbp_human CREBBP (Q92793 whole entry, looked up): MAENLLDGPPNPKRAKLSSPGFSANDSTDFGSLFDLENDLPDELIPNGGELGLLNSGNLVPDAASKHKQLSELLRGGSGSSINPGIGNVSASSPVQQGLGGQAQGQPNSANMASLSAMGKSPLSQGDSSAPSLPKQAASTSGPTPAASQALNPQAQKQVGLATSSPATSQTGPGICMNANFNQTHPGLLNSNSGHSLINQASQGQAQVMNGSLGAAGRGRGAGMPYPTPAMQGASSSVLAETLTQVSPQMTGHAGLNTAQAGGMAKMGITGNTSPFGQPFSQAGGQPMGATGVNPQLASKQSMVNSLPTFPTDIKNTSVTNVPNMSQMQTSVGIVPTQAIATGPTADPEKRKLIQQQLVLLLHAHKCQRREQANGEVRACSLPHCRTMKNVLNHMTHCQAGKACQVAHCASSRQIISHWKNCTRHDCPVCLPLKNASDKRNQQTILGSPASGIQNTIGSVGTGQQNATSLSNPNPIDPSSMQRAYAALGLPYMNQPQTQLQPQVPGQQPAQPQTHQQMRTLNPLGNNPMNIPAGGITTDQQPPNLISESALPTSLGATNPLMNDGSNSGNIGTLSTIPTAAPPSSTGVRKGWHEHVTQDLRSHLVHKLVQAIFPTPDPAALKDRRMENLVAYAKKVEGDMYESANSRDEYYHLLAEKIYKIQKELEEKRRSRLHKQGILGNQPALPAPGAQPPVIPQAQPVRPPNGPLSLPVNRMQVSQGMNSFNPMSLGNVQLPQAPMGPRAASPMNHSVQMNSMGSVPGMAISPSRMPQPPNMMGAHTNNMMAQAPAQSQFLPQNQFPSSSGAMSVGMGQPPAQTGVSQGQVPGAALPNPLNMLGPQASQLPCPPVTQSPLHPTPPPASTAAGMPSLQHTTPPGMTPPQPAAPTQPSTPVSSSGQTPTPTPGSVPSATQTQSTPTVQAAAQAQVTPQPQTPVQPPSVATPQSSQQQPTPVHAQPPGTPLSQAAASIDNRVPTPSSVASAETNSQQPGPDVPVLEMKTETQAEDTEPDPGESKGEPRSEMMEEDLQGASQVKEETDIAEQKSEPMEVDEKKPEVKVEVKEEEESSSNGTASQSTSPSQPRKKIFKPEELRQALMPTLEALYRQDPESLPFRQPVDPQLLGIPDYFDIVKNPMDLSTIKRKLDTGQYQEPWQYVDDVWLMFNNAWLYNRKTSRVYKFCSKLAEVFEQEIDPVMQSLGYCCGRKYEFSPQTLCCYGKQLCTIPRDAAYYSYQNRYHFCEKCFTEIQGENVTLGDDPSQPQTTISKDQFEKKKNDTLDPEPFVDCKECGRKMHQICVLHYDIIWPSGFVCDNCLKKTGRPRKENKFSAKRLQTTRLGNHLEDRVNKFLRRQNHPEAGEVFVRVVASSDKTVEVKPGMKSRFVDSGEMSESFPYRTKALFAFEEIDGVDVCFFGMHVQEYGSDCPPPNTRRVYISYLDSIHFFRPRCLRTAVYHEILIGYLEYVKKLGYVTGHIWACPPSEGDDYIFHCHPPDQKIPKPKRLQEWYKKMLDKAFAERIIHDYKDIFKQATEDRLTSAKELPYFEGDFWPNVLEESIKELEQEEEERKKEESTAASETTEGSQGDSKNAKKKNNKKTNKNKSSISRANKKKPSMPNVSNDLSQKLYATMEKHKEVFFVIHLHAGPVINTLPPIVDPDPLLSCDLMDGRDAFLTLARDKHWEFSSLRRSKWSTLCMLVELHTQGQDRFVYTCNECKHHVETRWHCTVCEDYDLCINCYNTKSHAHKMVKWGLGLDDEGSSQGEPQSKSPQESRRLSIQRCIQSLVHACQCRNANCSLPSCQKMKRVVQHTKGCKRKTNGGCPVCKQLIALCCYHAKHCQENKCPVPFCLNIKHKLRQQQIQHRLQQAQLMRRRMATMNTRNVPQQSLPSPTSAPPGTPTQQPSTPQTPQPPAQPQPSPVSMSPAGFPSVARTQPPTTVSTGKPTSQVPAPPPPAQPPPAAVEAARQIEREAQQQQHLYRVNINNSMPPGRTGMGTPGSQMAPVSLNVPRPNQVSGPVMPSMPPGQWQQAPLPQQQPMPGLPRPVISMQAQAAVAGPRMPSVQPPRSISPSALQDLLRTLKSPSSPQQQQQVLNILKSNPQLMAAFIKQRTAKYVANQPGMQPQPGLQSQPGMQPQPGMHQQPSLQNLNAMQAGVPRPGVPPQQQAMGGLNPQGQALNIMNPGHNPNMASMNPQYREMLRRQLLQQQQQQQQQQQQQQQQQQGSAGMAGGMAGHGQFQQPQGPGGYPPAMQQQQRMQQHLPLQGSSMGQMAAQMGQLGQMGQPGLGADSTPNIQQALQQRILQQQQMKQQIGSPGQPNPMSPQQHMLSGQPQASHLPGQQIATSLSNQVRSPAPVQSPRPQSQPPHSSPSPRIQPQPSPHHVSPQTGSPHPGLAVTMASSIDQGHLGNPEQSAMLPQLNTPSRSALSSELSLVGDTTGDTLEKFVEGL

Chain of Krueppel-like factor 1 (Homo sapiens), Q13351 W73P (Q13351 whole entry W73P): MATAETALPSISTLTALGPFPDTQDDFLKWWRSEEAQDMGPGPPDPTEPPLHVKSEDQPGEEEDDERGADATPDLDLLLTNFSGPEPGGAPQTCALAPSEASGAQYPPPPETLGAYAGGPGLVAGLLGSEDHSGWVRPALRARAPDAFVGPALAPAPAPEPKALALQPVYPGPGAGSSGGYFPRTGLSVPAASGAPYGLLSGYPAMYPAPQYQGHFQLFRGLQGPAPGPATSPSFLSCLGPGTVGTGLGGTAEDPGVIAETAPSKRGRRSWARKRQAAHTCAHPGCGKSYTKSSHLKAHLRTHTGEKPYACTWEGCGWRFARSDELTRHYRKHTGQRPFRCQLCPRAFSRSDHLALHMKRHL
Chain of tf2h1_human GTF2H1 (P32780 whole entry): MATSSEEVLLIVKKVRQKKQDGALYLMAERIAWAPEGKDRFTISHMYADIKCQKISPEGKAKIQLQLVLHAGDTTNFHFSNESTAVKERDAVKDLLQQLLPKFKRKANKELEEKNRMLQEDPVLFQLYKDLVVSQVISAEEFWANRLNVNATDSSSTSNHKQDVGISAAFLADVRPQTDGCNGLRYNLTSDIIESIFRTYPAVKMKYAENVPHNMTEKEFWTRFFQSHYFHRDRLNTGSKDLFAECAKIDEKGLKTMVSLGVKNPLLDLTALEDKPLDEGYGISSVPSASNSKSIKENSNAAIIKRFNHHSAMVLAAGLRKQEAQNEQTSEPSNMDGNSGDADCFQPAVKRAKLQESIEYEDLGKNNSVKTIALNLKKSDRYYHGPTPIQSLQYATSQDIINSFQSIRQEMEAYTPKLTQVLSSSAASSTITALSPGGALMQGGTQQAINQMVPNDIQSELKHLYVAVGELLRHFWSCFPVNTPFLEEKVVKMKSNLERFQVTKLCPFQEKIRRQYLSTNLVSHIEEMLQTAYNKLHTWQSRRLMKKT

Krueppel-like factor 1 (Homo sapiens), Q13351 W73P
effect of a mutation on the interaction (tf2h1_human GTF2H1): disrupting interaction strength
effect of a mutation on the interaction (cbp_human CREBBP): disrupting interaction strength
